Test results taken from the supplement of paper PMC9116672.
± gives the standard deviation of the averaged measurements or the uncertainty stated by the source.

Key:
[1] = duplex formation entropy ΔS (Van't Hoff fit of HRM Tm); higher = smaller entropy loss on duplex formation; settings: temperature for dG: 50 °C, NaCl: 500 mM (unadjusted)
Method in brief: (§1)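 Errors are fit standard deviations, and no salt adjustment was made to the enthalpy, entropy and free energy, which come from a linear Van't Hoff regression of 1/Tm (Tm: peak of -dF/dT) against ln(CT/4). The free energy is extrapolated to 50°C. Samples were phosphodiester or mixed Rp/Sp phosphorothioate DNA strands annealed 1:1 and melted at 1–20 μM, four replicates each, in 1× NNE buffer (500 mM NaCl, pH 7.0) with 1× EvaGreen on a LightCycler96 from 37 to 97°C at 0.1°C/s.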

[2] = duplex formation free energy ΔG50 (Van't Hoff fit of HRM Tm); higher = less stable duplex; settings: temperature for dG: 50 °C, NaCl: 500 mM (unadjusted)
Method in brief: as §1

[3] = duplex formation enthalpy ΔH (Van't Hoff fit of HRM Tm); higher = less exothermic duplex formation; settings: temperature for dG: 50 °C, NaCl: 500 mM (unadjusted)
Method in brief: as §1

[4] = duplex melting temperature (HRM, EvaGreen); higher = more stable duplex
Method in brief: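 Complementary DNA strands, either phosphodiester or phosphorothioate (Rp/Sp mixtures), were annealed 1:1 at 25 μM and diluted to 1–20 μM duplex in NNE buffer (500 mM NaCl, pH 7.0) containing 1× EvaGreen. Fluorescence at 470/514 nm was recorded on a LightCycler96 during heating from 37°C to 97°C at 0.1°C/s. The instrument software took the melting temperature as the peak of the negative dF/dT curve. Of four replicates, any without a clear peak were dropped and the remainder averaged.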

[5] = backbone: PO-PO (both strands phosphodiester DNA)
[6] = backbone: PS-PO (listed strand fully phosphorothioate, complement phosphodiester)
[7] = backbone: PS-PS (both strands fully phosphorothioate)
[8] = duplex concentration 1 µM, backbone: PS-PS (both strands fully phosphorothioate)
[9] = duplex concentration 2.5 µM, backbone: PO-PO (both strands phosphodiester DNA)
[10] = duplex concentration 2.5 µM, backbone: PS-PO (listed strand fully phosphorothioate, complement phosphodiester)
[11] = duplex concentration 2.5 µM, backbone: PS-PS (both strands fully phosphorothioate)
[12] = duplex concentration 5 µM, backbone: PO-PO (both strands phosphodiester DNA)
[13] = duplex concentration 5 µM, backbone: PS-PO (listed strand fully phosphorothioate, complement phosphodiester)
[14] = duplex concentration 5 µM, backbone: PS-PS (both strands fully phosphorothioate)
[15] = duplex concentration 7.5 µM, backbone: PO-PO (both strands phosphodiester DNA)
[16] = duplex concentration 7.5 µM, backbone: PS-PO (listed strand fully phosphorothioate, complement phosphodiester)
[17] = duplex concentration 7.5 µM, backbone: PS-PS (both strands fully phosphorothioate)
[18] = duplex concentration 10 µM, backbone: PO-PO (both strands phosphodiester DNA)
[19] = duplex concentration 10 µM, backbone: PS-PO (listed strand fully phosphorothioate, complement phosphodiester)
[20] = duplex concentration 10 µM, backbone: PS-PS (both strands fully phosphorothioate)
[21] = duplex concentration 15 µM, backbone: PO-PO (both strands phosphodiester DNA)
[22] = duplex concentration 15 µM, backbone: PS-PO (listed strand fully phosphorothioate, complement phosphodiester)
[23] = duplex concentration 15 µM, backbone: PS-PS (both strands fully phosphorothioate)
[24] = duplex concentration 20 µM, backbone: PO-PO (both strands phosphodiester DNA)
[25] = duplex concentration 20 µM, backbone: PS-PO (listed strand fully phosphorothioate, complement phosphodiester)
[26] = duplex concentration 20 µM, backbone: PS-PS (both strands fully phosphorothioate)
[27] = duplex concentration 1 µM, backbone: PO-PO (both strands phosphodiester DNA)
[28] = duplex concentration 1 µM, backbone: PS-PO (listed strand fully phosphorothioate, complement phosphodiester)

| Sequence | duplex formation entropy ΔS [1, 5] [cal/mol/K] | duplex formation entropy ΔS [1, 6] [cal/mol/K] | duplex formation entropy ΔS [1, 7] [cal/mol/K] | duplex formation free energy ΔG50 [2, 5] [kcal/mol] | duplex formation free energy ΔG50 [2, 6] [kcal/mol] | duplex formation free energy ΔG50 [2, 7] [kcal/mol] | duplex formation enthalpy ΔH [3, 5] [kcal/mol] | duplex formation enthalpy ΔH [3, 6] [kcal/mol] | duplex formation enthalpy ΔH [3, 7] [kcal/mol] | duplex melting temperature [4, 8] [°C] | duplex melting temperature [4, 9] [°C] | duplex melting temperature [4, 10] [°C] | duplex melting temperature [4, 11] [°C] | duplex melting temperature [4, 12] [°C] | duplex melting temperature [4, 13] [°C] | duplex melting temperature [4, 14] [°C] | duplex melting temperature [4, 15] [°C] | duplex melting temperature [4, 16] [°C] | duplex melting temperature [4, 17] [°C] | duplex melting temperature [4, 18] [°C] | duplex melting temperature [4, 19] [°C] | duplex melting temperature [4, 20] [°C] | duplex melting temperature [4, 21] [°C] | duplex melting temperature [4, 22] [°C] | duplex melting temperature [4, 23] [°C] | duplex melting temperature [4, 24] [°C] | duplex melting temperature [4, 25] [°C] | duplex melting temperature [4, 26] [°C] | duplex melting temperature [4, 27] [°C] | duplex melting temperature [4, 28] [°C] |
| --- | --- | --- | --- | --- | --- | --- | --- | --- | --- | --- | --- | --- | --- | --- | --- | --- | --- | --- | --- | --- | --- | --- | --- | --- | --- | --- | --- | --- | --- | --- |
| CTAAACTGTTATAGCCGG | -219 ± 24 | -205 ± 9.7 | -166 ± 7.6 | -13.2 ± 0.46 | -11.2 ± 0.12 | -8.979 ± 0.029 | -83.8 ± 8.2 | -77.5 ± 3.3 | -62.5 ± 2.5 | 46.18 ± 0.36 | 66.43 ± 0.32 | 58.77 ± 0.43 | 48.97 ± 0.4 | 67.83 ± 0.25 | 60.28 ± 0.38 | 51.09 ± 0.26 | 68.83 ± 0.28 | 61.66 ± 0.5 | 52.63 ± 0.18 | 70.13 ± 0.37 | 62.55 ± 0.4 | 53.4 ± 0.36 | 71.19 ± 0.13 | 63.71 ± 0.22 | 55.1 ± 0.25 | 72.08 ± 0.077 | 64.43 ± 0.18 | 56.27 ± 0.23 | – | – |
| CTCAGAGTAGAGCCGA | -179 ± 6.5 | -183 ± 3.4 | -182 ± 8.6 | -12.5 ± 0.13 | -11.45 ± 0.047 | -9.827 ± 0.057 | -70.2 ± 2.2 | -70.4 ± 1.1 | -68.5 ± 2.8 | 49.9 ± 1.1 | 65.7 ± 0.74 | 60.75 ± 0.31 | 53.32 ± 0.14 | 68.22 ± 0.15 | 63.08 ± 0.2 | 55.65 ± 0.051 | 69.47 ± 0.26 | 64.34 ± 0.11 | 56.75 ± 0.12 | 70.41 ± 0.2 | 65.17 ± 0.17 | 57.39 ± 0.097 | 71.91 ± 0.23 | 66.49 ± 0.15 | 58.63 ± 0.12 | 72.85 ± 0.2 | 67.47 ± 0.082 | 59.42 ± 0.24 | 63.68 ± 0.069 | 57.92 ± 0.21 |
| GCAGGAGCCGCGACCTG | -257 ± 15 | -197 ± 5.2 | -212 ± 5.6 | -17.2 ± 0.47 | -13.98 ± 0.13 | -12.81 ± 0.099 | -100 ± 5.4 | -77.6 ± 1.8 | -81.2 ± 1.9 | 62.56 ± 0.17 | 78.12 ± 0.35 | 71.31 ± 0.39 | 65.18 ± 0.082 | 79.75 ± 0.071 | 73.48 ± 0.49 | 66.99 ± 0.15 | 80.79 ± 0.2 | 74.78 ± 0.33 | 68.28 ± 0.17 | 81.76 ± 0.16 | 75.68 ± 0.15 | 69.26 ± 0.061 | 82.48 ± 0.27 | 76.9 ± 0.33 | 70.16 ± 0.069 | 83.26 ± 0.12 | 77.68 ± 0.29 | 71.01 ± 0.16 | – | 68.45 ± 0.49 |
| GGTGGCGTTCTT | – | -111 ± 8.2 | -101 ± 9.8 | – | -9.41 ± 0.08 | -8.491 ± 0.033 | – | -45.3 ± 2.7 | -41.1 ± 3.2 | 40.15 ± 0.21 | 61.9 | – | 44.6 ± 0.65 | 63 ± 0.79 | – | 48.03 ± 0.26 | 64.6 ± 0.54 | 57 | 49.76 ± 0.44 | 65.58 ± 0.13 | 58.31 ± 0.53 | 51.3 ± 0.97 | 66.42 ± 0.23 | 60.44 ± 0.39 | 53.7 ± 1.4 | 67.68 ± 0.13 | 61.54 ± 0.24 | 55.8 ± 0.86 | – | – |
| TTGTAGTTGACGTTTGTGATTTAGTGAATT | -503 ± 23 | -414 ± 12 | -335 ± 7.4 | -23.4 ± 0.65 | -16.9 ± 0.24 | -12.45 ± 0.081 | -186 ± 8.2 | -151 ± 4.2 | -121 ± 2.5 | 57.2 ± 0.68 | 76.626 ± 0.046 | 67.48 ± 0.5 | 59 ± 0.58 | 77.623 ± 0.046 | 68.57 ± 0.46 | 60.27 ± 0.37 | 78.24 ± 0.12 | 69.28 ± 0.39 | 60.98 ± 0.26 | 78.646 ± 0.027 | 69.64 ± 0.24 | 61.54 ± 0.13 | 78.98 ± 0.12 | 70.23 ± 0.23 | 62.29 ± 0.073 | 79.7 | 70.83 ± 0.099 | 62.84 ± 0.14 | 75.58 ± 0.12 | 66.16 ± 0.47 |
| GATCTCTCTATCATCGTTTATTGGGTAT | -377 ± 36 | -335 ± 11 | -301 ± 9 | -18.9 ± 0.91 | -14.3 ± 0.18 | -11.5 ± 0.081 | -141 ± 12 | -122 ± 3.9 | -109 ± 3 | 55.1 ± 0.83 | 73.89 ± 0.35 | 64.3 ± 0.58 | 57.06 ± 0.4 | 74.81 ± 0.38 | 65.57 ± 0.42 | 58.33 ± 0.34 | 75.52 ± 0.2 | 66.23 ± 0.5 | 59.33 ± 0.081 | 76.276 ± 0.075 | 66.83 ± 0.22 | 59.89 ± 0.23 | 77.239 ± 0.047 | 67.61 ± 0.095 | 60.59 ± 0.19 | 77.914 ± 0.069 | 68.11 ± 0.096 | 61.27 ± 0.12 | 73.08 ± 0.33 | 62.69 ± 0.48 |
| GCTGTGAAACAATGTAG | -217 ± 10 | -211 ± 5.7 | -231 ± 7.8 | -12.3 ± 0.16 | -10.46 ± 0.049 | -8.078 ± 0.024 | -82.5 ± 3.5 | -78.8 ± 1.9 | -82.8 ± 2.5 | 43.66 ± 0.19 | 62.76 ± 0.31 | 55.41 ± 0.29 | 45.72 ± 0.19 | 64.54 ± 0.42 | 57.39 ± 0.24 | 47.54 ± 0.13 | 65.61 ± 0.42 | 58.44 ± 0.21 | 48.34 ± 0.13 | 66.58 ± 0.4 | 59.19 ± 0.24 | 49.09 ± 0.059 | 67.8 ± 0.33 | 60.21 ± 0.11 | 50.25 ± 0.24 | 68.65 ± 0.32 | 61.12 ± 0.092 | 51.09 ± 0.3 | 60.4 ± 1.3 | 52.85 ± 0.06 |
